Assay results from article PMC7026633.

Biological target: Flag-tagged phosphor-mutant (AA: S1310A, S1379A) full-length human Tet3 (lentiviral) (human) (UniProt O43151)
Experiment: co-IP; Tet3 KO mouse ESCs stably expressing Flag-tagged Wt or AA human Tet3; lysate in TBST buffer (50 mM Tris-HCl pH 7.4, 150 mM NaCl, 1 mM EDTA, 1% Triton X-100); IP overnight with anti-Flag M2 affinity gel or mouse IgG agarose, washed four times with TBST; blot for FLAG and H2A.Z

fold change of H2A.Z pulled down, against wild-type Tet3: 2 fold
Substance: histone variant H2A.Z (endogenous, mouse ESCs) (from UniProt P0C0S6 1-128) (natural protein)
